B1: Merlin (Homo sapiens), P35240 (parent)
chain: MAGAIASRMSFSSLKRKQPKTFTVRIVTMDAEMEFNCEMKWKGKDLFDLVCRTLGLRETWFFGLQYTIKDTVAWLKMDKKVLDHDVSKEEPVTFHFLAKFYPENAEEELVQEITQHLFFLQVKKQILDEKIYCPPEASVLLASYAVQAKYGDYDPSVHKRGFLAQEELLPKRVINLYQMTPEMWEERITAWYAEHRGRARDEAEMEYLKIAQDLEMYGVNYFAIRNKKGTELLLGVDALGLHIYDPENRLTPKISFPWNEIRNISYSDKEFTIKPLDKKIDVFKFNSSKLRVNKLILQLCIGNHDLFMRRRKADSLEVQQMKAQAREEKARKQMERQRLAREKQMREEAERTRDELERRLLQMKEEATMANEALMRSEETADLLAEKAQITEEEAKLLAQKAAEAEQEMQRIKATAIRTEEEKRLMEQKVLEAEVLALKMAEESERRAKEADQLKQDLQEAREAERRAKQKLLEIATKPTYPPMNPIPAPLPPDIPSFNLIGDSLSFDFKDTDMKRLSMEIEKEKVEYMEKSKHLQEQLNELKTEIEALKLKERETALDILHNENSDRGGSSKHNTIKKLTLQSAKSRVAFFEEL
B2: Mitogen-activated protein kinase kinase kinase 11 (Homo sapiens), Q16584 (parent)
chain: MEPLKSLFLKSPLGSWNGSGSGGGGGGGGGRPEGSPKAAGYANPVWTALFDYEPSGQDELALRKGDRVEVLSRDAAISGDEGWWAGQVGGQVGIFPSNYVSRGGGPPPCEVASFQELRLEEVIGIGGFGKVYRGSWRGELVAVKAARQDPDEDISVTAESVRQEARLFAMLAHPNIIALKAVCLEEPNLCLVMEYAAGGPLSRALAGRRVPPHVLVNWAVQIARGMHYLHCEALVPVIHRDLKSNNILLLQPIESDDMEHKTLKITDFGLAREWHKTTQMSAAGTYAWMAPEVIKASTFSKGSDVWSFGVLLWELLTGEVPYRGIDCLAVAYGVAVNKLTLPIPSTCPEPFAQLMADCWAQDPHRRPDFASILQQLEALEAQVLREMPRDSFHSMQEGWKREIQGLFDELRAKEKELLSREEELTRAAREQRSQAEQLRRREHLLAQWELEVFERELTLLLQQVDRERPHVRRRRGTFKRSKLRARDGGERISMPLDFKHRITVQASPGLDRRRNVFEVGPGDSPTFPRFRAIQLEPAEPGQAWGRQSPRRLEDSSNGERRACWAWGPSSPKPGEAQNGRRRSRMDEATWYLDSDDSSPLGSPSTPPALNGNPPRPSLEPEEPKRPVPAERGSSSGTPKLIQRALLRGTALLASLGLGRDLQPPGGPGRERGESPTTPPTPTPAPCPTEPPPSPLICFSLKTPDSPPTPAPLLLDLGIPVGQRSAKSPRREEEPRGGTVSPPPGTSRSAPGTPGTPRSPPLGLISRPRPSPLRSRIDPWSFVSAGPRPSPLPSPQPAPRRAPWTLFPDSDPFWDSPPANPFQGGPQDCRAQTKDMGAQAPWVPEAGP

Variants of: B1
Details: with MAP3K11, Q16584

Row | effect of a mutation on the interaction | Variant
1 | decreasing interaction | S518D

Variants of: B2
Details: with merl_human NF2, P35240

Row | effect of a mutation on the interaction | Variant
2 | disrupting interaction | K144R
